Data taken from publication PMC7264293, “Multi-site-mediated entwining of the linear WIR-motif around WIPI β-propellers for autophagy” (Nature Communications, 2020).

Biological target: WIPI3-Δloop (human), Q5MNZ6
Test: ITC; WIPI3 proteins in the sample cell, GB1-tagged ATG2A fragments in the syringe; 25 °C; 50 mM Tris-HCl pH 8.0, 100 mM NaCl, 1 mM EDTA, 1 mM DTT; model of one binding site

Chain of WIPI3-Δloop (human), Q5MNZ6 (Q5MNZ6 other isoform, or with tags, fused parts or gaps mutant): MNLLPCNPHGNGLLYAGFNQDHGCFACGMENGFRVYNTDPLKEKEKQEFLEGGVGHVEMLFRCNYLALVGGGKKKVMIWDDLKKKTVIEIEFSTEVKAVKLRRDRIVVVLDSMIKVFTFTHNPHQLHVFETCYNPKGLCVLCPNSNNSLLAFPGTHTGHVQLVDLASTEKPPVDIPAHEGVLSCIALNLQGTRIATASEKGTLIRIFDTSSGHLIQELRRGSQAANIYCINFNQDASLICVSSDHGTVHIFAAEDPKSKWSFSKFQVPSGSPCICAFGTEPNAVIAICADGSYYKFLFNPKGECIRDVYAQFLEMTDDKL

Kd: 64.3 µM
B1: GB1-tagged WIR-peptide ΔN-strand (peptide)
chain: GPIVVRDGYFSRPIGSTD
modifications: not checked
